Results: paper PMC6915727

Target: human Toll-like receptor 5 (TLR5) in stably transfected HEK293 cells (TLR5+) (human) (UniProt O60602)
Chain of UniProt O60602 (O60602 21-858): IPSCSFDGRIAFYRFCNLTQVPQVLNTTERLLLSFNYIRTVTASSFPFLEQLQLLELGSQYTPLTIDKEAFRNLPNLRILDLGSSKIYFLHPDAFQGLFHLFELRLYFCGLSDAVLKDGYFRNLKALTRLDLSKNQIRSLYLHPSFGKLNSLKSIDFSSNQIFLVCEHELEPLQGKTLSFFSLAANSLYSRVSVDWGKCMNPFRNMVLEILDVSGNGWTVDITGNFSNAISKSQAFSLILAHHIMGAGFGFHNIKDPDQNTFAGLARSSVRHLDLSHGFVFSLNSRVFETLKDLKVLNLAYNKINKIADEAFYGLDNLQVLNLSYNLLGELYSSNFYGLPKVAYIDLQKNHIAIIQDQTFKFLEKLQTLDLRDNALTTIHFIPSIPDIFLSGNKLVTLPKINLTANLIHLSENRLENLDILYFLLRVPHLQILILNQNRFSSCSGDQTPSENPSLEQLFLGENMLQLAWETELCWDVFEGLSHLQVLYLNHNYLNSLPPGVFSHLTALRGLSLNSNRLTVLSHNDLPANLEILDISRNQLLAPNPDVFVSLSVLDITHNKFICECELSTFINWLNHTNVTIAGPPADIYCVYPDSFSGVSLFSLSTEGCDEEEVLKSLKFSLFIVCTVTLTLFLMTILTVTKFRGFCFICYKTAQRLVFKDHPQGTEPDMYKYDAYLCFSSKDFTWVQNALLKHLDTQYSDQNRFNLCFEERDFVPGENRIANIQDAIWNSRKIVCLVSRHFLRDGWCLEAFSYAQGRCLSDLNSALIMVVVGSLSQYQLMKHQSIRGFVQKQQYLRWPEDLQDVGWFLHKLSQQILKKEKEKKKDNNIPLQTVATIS

recombinant CagL wild type (CagL^WT), C-terminal His-tag fusion (natural protein)
NF-κB luciferase activity in TLR5+ HEK293 cells, dose-response of recombinant CagL WT (EC50): 173 nM
